# Assay results published in patent US20110081659.
# T1: ULight-labeled 4E-BP1 fragment peptide GSK3 substrate (non-primed)
# T1 chain: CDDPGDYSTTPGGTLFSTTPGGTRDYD
# B1: GSK3α (Carna) (protein)
# chain: MSGGGPSGGGPGGSGRARTSSFAEPGGGGGGGGGGPGGSASGPGGTGGGKASVGAMGGGVGASSSGGGPGGSGGGGSGGPGAGTSFPPPGVKLGRDSGKVTTVVATLGQGPERSQEVAYTDIKVIGNGSFGVVYQARLAETRELVAIKKVLQDKRFKNRELQIMRKLDHCNIVRLRYFFYSSGEKKDELYLNLVLEYVPETVYRVARHFTKAKLTIPILYVKVYMYQLFRSLAYIHSQGVCHRDIKPQNLLVDPDTAVLKLCDFGSAKQLVRGEPNVSYICSRYYRAPELIFGATDYTSSIDVWSAGCVLAELLLGQPIFPGDSGVDQLVEIIKVLGTPTREQIREMNPNYTEFKFPQIKAHPWTKVFKSRTPPEAIALCSSLLEYTPSSRLSPLEACAHSFFDELRCLGTQLPNNRPLPPLFNFSAGELSIQPSLNAILIPPHLRSPAGTTTLTPSSQALTETPTSSDWQSTDATPTLTNSS
# Target: T1, ULight-labeled 4E-BP1 fragment peptide …
protein,measurement,value
B1,"S/B, LANCE Ultra kinase assay, 20 nM enzyme, n = 1",35.7
same,"S/B, LANCE Ultra kinase assay, 20 nM enzyme, n = 2",33.2
